# Source: patent publication US20220289859A1 (GlaxoSmithKline, published 2022)
# T1: BCMA (UniProt Q02223 1-54, limits assumed)
# T1 construct: also called antigen; CD269
# T1 sequence (looked up): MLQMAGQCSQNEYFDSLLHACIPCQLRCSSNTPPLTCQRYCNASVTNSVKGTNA
# Experiments:
# [1] = target: Neonatal Fc Receptor (FcRn) (UniProt P55899 24-297; P61769 21-119, limits assumed); test: SPR specific binding activity, FcRn on NTA chip; ref std #162397940
# Procedure: The FcRn binding concentration of the sample was determined by interpolation of the binding response on a calibration curve. Specific binding activity (%) was calculated by dividing the FcRn binding concentration by the total protein concentration.
# BCMA [2] = target: T1, BCMA; test: SPR specific binding activity, protein A capture; ref std #162397940
# Procedure: (§1) The specific binding activity (%) was calculated by dividing the BCMA or FcγRIIIa binding concentration by the absorbance at 280 nm concentration.
# FcγRIIIa = target: T2, FcγRIIIa (UniProt P08637 17-208, limits assumed); test: as above
# T2 construct: also called CD16a
# T2 sequence (P08637 17-208 limits assumed): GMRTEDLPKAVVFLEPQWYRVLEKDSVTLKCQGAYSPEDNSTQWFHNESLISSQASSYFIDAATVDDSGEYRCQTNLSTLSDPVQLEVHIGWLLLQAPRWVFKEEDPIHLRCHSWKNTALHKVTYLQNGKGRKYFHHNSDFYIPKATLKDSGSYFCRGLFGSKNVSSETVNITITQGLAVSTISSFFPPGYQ
# Procedure: as §1
# BCMA [3] = target: T1, BCMA; test: SPR as in Example 4; glyco-enriched samples of belantamab
# Procedure: as §1
# BCMA [4] = target: T1, BCMA; test: SPR, protein A capture; H2O2-treated 1 h; ref std #182407660A
# Procedure: as §1
# Neonatal Fc Receptor (FcRn), sequence (P55899 24-297 limits assumed, form in doubt, chain 1 of 2): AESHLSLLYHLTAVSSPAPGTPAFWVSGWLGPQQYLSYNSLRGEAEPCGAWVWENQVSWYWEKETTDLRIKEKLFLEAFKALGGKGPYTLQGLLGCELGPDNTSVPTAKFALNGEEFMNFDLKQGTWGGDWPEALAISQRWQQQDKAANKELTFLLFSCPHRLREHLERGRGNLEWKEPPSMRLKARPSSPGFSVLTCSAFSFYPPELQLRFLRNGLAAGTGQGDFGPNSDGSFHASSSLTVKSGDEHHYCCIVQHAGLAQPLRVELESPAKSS
# Neonatal Fc Receptor (FcRn), sequence (P61769 21-119 limits assumed, form in doubt, chain 2 of 2): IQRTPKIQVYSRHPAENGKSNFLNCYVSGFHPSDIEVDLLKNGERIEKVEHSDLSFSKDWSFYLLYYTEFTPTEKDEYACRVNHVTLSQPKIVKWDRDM
Binder,FcRn (%) [1],BCMA (%) (BCMA [2]),FcγRIIIa (%) (FcγRIIIa),Specific BCMA binding activity (BCMA [3]),% Antigen Specific Binding (BCMA [4])
"belantamab mafodotin DL6 species (antibody, human IgG1, kappa, MMAF on LC C214 of one light chain; drug load of six MMAF; conjugation sites as printed: LC C214, HC 224, LC C230, HC 233, LC C230 and HC 233) heavy: not shown light: not shown",97%,89%,84%,–,–
"belantamab deglycosylated with PNGaseF (antibody, human IgG1, kappa, N-linked glycans removed with PNGaseF) heavy: not shown light: not shown",–,–,–,95%,–
"belantamab mafodotin (antibody, human IgG1, kappa, MMAF on LC C214 in part of the molecules; MMAF conjugated to interchain cysteine sulfhydryls (sites printed at paragraph 239: HC 224, C230, HC 233); heterogeneous drug load DL0 to DL8, average DAR about 4 (2.1 to 5.7 in the DAR samples of Example 4), Antibody-drug conjugate: belantamab conjugated to MMAF; Tested as lots, as samples of differing average DAR and as forced-degradation samples (oxidised, base, acid, thermal, photo); the sample is named in each row; also called anti-BCMA ADC; ADC) heavy: not shown light: not shown",101%,96%,97%,–,99%
"belantamab mafodotin DL2 species (antibody, human IgG1, kappa, MMAF on LC C214 of one light chain; drug load of two MMAF per antibody; conjugation sites LC C214 and HC 224 (one embodiment)) heavy: not shown light: not shown",109%,99%,104%,–,–
"belantamab mafodotin DL4a species (antibody, human IgG1, kappa, MMAF on LC C214; drug load of four MMAF; conjugation sites LC C214, HC 224, LC C214 and HC 224) heavy: not shown light: not shown",102%,95%,103%,–,–
"belantamab mafodotin DL0 species (antibody, human IgG1, kappa, no drug load, antibody without cytotoxic agent) heavy: not shown light: not shown",108%,103%,110%,–,–
"belantamab mafodotin DL4b species (antibody, human IgG1, kappa, drug load of four MMAF; conjugation sites as printed: LC C230, HC 233, LC C230 and HC 233) heavy: not shown light: not shown",99%,90%,91%,–,–
"belantamab mafodotin DL8 species (antibody, human IgG1, kappa, MMAF on LC C214; drug load of eight MMAF; conjugation sites as printed: LC C214, HC 224, LC C214, HC 224, LC C230, HC 233, LC C230 and HC 233) heavy: not shown light: not shown",93%,86%,82%,–,–
